Assays:
[1] = target: HPV16 E6 (human papillomavirus type 16 (HPV16)) (UniProt P03126); test: cell-based or functional assay
MDM2 = MDM2 (UniProt Q00987); test: cell-based or functional assay
Chain of MDM2 (Q00987 whole entry): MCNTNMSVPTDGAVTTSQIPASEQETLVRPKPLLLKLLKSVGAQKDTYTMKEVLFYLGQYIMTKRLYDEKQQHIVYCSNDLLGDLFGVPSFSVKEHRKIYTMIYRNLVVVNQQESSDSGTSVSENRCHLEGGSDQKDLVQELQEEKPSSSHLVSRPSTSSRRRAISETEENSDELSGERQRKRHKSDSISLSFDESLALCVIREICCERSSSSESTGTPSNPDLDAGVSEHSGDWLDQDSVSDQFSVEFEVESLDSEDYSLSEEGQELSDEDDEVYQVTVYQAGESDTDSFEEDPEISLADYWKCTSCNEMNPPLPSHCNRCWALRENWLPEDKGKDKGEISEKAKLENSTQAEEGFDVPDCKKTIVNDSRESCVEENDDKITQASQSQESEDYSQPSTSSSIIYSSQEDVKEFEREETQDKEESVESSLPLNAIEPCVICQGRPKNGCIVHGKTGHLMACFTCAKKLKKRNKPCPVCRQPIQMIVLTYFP

Chain of exogenous CH1 domain of p300 (pcDNA3.1/CH1) (Q09472 whole entry, the tested form may be a part): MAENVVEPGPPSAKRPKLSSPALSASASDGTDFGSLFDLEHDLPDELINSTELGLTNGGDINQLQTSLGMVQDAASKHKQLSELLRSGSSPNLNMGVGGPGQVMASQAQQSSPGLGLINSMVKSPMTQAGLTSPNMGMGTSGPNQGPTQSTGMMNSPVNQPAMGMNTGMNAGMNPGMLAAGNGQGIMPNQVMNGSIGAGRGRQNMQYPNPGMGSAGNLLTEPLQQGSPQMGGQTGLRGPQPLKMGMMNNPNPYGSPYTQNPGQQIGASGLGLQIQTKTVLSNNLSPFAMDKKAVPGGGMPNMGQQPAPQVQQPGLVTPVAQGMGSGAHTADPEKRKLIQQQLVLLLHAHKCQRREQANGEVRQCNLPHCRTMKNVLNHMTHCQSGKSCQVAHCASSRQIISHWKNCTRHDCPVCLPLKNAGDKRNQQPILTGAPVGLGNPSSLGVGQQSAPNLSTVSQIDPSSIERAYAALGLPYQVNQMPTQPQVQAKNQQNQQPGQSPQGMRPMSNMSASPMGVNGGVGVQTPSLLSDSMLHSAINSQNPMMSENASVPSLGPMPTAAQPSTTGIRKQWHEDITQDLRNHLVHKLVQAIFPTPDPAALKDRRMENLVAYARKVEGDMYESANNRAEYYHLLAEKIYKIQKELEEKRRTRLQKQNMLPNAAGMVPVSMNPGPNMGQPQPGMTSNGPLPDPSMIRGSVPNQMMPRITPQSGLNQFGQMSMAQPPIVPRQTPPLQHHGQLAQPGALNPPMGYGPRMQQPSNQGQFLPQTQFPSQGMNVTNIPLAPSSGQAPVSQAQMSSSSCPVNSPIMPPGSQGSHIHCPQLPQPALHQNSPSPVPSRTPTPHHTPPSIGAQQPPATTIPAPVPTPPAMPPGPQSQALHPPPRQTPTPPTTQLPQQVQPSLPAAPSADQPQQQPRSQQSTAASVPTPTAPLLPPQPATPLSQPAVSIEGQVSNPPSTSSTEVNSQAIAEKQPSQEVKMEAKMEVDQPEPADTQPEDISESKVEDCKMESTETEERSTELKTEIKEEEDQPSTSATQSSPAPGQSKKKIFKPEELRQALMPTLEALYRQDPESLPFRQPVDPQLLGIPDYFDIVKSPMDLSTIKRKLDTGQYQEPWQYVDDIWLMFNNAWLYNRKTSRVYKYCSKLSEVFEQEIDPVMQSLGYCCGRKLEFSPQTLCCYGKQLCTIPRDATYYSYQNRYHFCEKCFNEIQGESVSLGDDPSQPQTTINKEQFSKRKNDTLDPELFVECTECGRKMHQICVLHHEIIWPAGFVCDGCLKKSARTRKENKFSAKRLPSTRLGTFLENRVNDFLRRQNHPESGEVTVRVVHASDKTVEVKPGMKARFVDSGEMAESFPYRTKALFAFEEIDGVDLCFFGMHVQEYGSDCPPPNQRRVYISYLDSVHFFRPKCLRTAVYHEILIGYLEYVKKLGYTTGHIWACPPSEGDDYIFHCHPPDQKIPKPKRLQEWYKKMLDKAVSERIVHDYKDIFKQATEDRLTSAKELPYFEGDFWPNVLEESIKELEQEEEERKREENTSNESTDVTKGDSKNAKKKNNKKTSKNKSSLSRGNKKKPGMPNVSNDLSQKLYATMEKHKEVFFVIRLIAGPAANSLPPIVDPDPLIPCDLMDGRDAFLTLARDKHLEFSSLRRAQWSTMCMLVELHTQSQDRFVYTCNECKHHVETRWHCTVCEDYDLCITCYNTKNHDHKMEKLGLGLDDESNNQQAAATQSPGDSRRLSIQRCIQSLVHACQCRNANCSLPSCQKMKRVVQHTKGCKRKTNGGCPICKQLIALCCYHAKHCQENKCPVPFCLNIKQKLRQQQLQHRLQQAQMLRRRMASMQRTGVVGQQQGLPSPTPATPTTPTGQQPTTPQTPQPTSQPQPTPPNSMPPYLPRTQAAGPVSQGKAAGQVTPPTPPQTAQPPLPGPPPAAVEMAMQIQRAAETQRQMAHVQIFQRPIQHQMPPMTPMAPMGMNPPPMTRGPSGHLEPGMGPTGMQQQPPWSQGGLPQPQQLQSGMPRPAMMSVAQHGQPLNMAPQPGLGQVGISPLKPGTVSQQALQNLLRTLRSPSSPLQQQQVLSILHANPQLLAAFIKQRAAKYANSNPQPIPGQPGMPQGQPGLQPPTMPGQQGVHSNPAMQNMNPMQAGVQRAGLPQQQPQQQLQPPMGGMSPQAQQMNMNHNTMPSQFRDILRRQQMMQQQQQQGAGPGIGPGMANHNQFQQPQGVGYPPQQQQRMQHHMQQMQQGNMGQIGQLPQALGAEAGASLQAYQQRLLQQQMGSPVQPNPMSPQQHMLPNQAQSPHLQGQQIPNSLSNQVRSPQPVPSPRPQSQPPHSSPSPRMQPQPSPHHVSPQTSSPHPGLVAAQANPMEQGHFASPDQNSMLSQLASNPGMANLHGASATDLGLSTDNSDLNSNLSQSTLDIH
Chain of HPV16 E6 (human papillomavirus type 16 (HPV16)) (P03126 whole entry): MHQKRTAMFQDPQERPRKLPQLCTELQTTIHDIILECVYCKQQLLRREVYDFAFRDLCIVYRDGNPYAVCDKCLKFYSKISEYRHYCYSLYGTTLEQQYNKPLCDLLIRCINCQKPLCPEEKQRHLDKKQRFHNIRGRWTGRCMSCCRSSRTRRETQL

exogenous CH1 domain of p300 (pcDNA3.1/CH1) (from UniProt Q09472 332-417)
p53 transcription activity (luciferase reporter), UMSCC47/CH1 cells [1]: 85% | p53 transcription activity (luciferase reporter), UPCI:SCC090/CH1 cells [1]: 50% | p53 transcription activity (luciferase reporter), UMSCC74A/CH1 compared to UMSCC74A/empty cells (MDM2): 68%

From patent US20140220159A1
